The results in this text go back to paper PMC9299485, “4‐Iodopyrimidine Labeling Reveals Nuclear Translocation and Nuclease Activity for Both MIF and MIF2” (Chemistry (Weinheim an Der Bergstrasse, Germany), 2021).

The test system of the series is human genomic DNA. Nature of the series: Nuclease assay of MIF and MIF2 on human genomic DNA (agarose gel). Format: biochemical. As to conditions: for concentration giving complete hgDNA cleavage: within 2 h, 37°C, Mg2+. Here is the method: 7. Nuclease activity of MIF and MIF2.
Human genomic DNA was obtained from RPE-1 cells by DNA extraction following the protocol described in literature.[10] The nuclease assays were conducted by following the procedure described previously.[8] hgDNA (200 ng/reaction) was incubated with MIF or MIF2 in final concentration of 0.62 -20 µM as indicated in 10Mm Tris-HCl buffer (pH 7.0) containing 10mM MgCl2 (B and C) or specific buffer as indicated at 37°C for two hours. The reaction was terminated with loading buffer containing 10mM EDTA and incubation on ice. The human genomic DNA samples were immediately separated on a 1% agarose gel containing SYBR Safe (ThermoFisher) in 0.5 X TBE buffer with initial switch time of 1.5 s and a final switch time of 3.5 s for 12 hours at 6 V/cm. DNA was further detected by chemiluminescence.
Figure S7. hgDNA cleavage activity of MIF and MIF2. (A) The MIF2 nuclease activity is Mg 2+- […]
BITC is a covalent inhibitor that can form covalent bond with the N-terminal proline.[11] (C) […]
(1 picture or pasted object on this page, not shown here)

B1: MIF2: recombinant human MIF2 (D-dopachrome tautomerase), tested as nuclease on hgDNA (protein, UniProt P30046 2-118, looked up)
D-dopachrome decarboxylase: PFLELDTNLPANRVPAGLEKRLCAAAASILGKPADRVNVTVRPGLAMALSGSTEPCAQLSISSIGVVGTAEDNRSHSAHFFEFLTKELALGQDRILIRFFPLESWQIGKIGTVMTFL
As for B1, the “concentration giving complete hgDNA cleavage” value is given as “above 10 μM”. Moreover, the “nuclease activity relative to MIF” value (lower activity than MIF) is on record as 10 fold.

B2: MIF: recombinant human macrophage migration inhibitory factor, tested as nuclease on hgDNA (protein, UniProt P14174 2-115, looked up)
Macrophage migration …: PMFIVNTNVPRASVPDGFLSELTQQLAQATGKPPQYIAVHVVPDQLMAFGGSSEPCALCSLHSIGKIGGAQNRSYSKLLCGLLAERLRISPDRVYINYYDMNAANVGWNNSTFA
B2: the “concentration giving complete hgDNA cleavage” value was determined as 1.25 µM.
